Data: patent US20190225650A1, “PEPTIDOMIMETIC MACROCYCLES AND USE THEREOF IN REGULATING HIF1ALPHA” (AILERON THERAPEUTICS, INC., priority 2013, published 2019)
Bridge positions count the residues as written; N and C are the ends. Square brackets hold non-standard residues; d marks the D form. Ala(3-Me-diazirin-3-yl) = CC1(C[C@H](N)C(=O)O)N=N1; S5 = C=CCCC[C@](C)(N)C(=O)O; Nle = CCCC[C@H](N)C(=O)O; Dap = NC[C@H](N)C(=O)O

B1: SP-62 (peptide)
peptide: Ac-FI[Dap]EEVL[Nle][S5]LVI[S5][Nle]ALDRI-NH2
modifications: staple 9-13
SMILES: CCCC[C@H](NC(=O)[C@H](CC(C)C)NC(=O)[C@@H](NC(=O)[C@H](CCC(=O)O)NC(=O)[C@H](CCC(=O)O)NC(=O)[C@H](CN)NC(=O)[C@@H](NC(=O)[C@H](Cc1ccccc1)NC(C)=O)[C@@H](C)CC)C(C)C)C(=O)N[C@@]1(C)CCCC=CCCC[C@@](C)(C(=O)N[C@@H](CCCC)C(=O)N[C@@H](C)C(=O)N[C@@H](CC(C)C)C(=O)N[C@@H](CC(=O)O)C(=O)N[C@@H](CCCNC(=N)N)C(=O)N[C@H](C(N)=O)[C@@H](C)CC)NC(=O)[C@H]([C@@H](C)CC)NC(=O)[C@H](C(C)C)NC(=O)[C@H](CC(C)C)NC1=O
B2: SP-90 (peptide)
peptide: Ac-FIDEEVLM[S5]LVI[S5]MGLDRIKELPELW-NH2
modifications: staple 9-13
SMILES: CC[C@H](C)[C@H](NC(=O)[C@H](Cc1ccccc1)NC(C)=O)C(=O)N[C@@H](CC(=O)O)C(=O)N[C@@H](CCC(=O)O)C(=O)N[C@@H](CCC(=O)O)C(=O)N[C@H](C(=O)N[C@@H](CC(C)C)C(=O)N[C@@H](CCSC)C(=O)N[C@@]1(C)CCCC=CCCC[C@@](C)(C(=O)N[C@@H](CCSC)C(=O)NCC(=O)N[C@@H](CC(C)C)C(=O)N[C@@H](CC(=O)O)C(=O)N[C@@H](CCCNC(=N)N)C(=O)N[C@H](C(=O)N[C@@H](CCCCN)C(=O)N[C@@H](CCC(=O)O)C(=O)N[C@@H](CC(C)C)C(=O)N2CCC[C@H]2C(=O)N[C@@H](CCC(=O)O)C(=O)N[C@@H](CC(C)C)C(=O)N[C@@H](Cc2c[nH]c3ccccc23)C(N)=O)[C@@H](C)CC)NC(=O)[C@H]([C@@H](C)CC)NC(=O)[C@H](C(C)C)NC(=O)[C@H](CC(C)C)NC1=O)C(C)C
B3: SP-99 (peptide)
peptide: Ac-FIDEEVLM[S5]LVI[S5]MG-NH2
modifications: staple 9-13
SMILES: CC[C@H](C)[C@H](NC(=O)[C@H](Cc1ccccc1)NC(C)=O)C(=O)N[C@@H](CC(=O)O)C(=O)N[C@@H](CCC(=O)O)C(=O)N[C@@H](CCC(=O)O)C(=O)N[C@H](C(=O)N[C@@H](CC(C)C)C(=O)N[C@@H](CCSC)C(=O)N[C@@]1(C)CCCC=CCCC[C@@](C)(C(=O)N[C@@H](CCSC)C(=O)NCC(N)=O)NC(=O)[C@H]([C@@H](C)CC)NC(=O)[C@H](C(C)C)NC(=O)[C@H](CC(C)C)NC1=O)C(C)C
B4: SP-97 (peptide)
peptide: Ac-FIDEEVLM[S5]LVI[S5]MGLDRI-NH2
modifications: staple 9-13
SMILES: CC[C@H](C)[C@H](NC(=O)[C@H](CCCNC(=N)N)NC(=O)[C@H](CC(=O)O)NC(=O)[C@H](CC(C)C)NC(=O)CNC(=O)[C@H](CCSC)NC(=O)[C@]1(C)CCCC=CCCC[C@](C)(NC(=O)[C@H](CCSC)NC(=O)[C@H](CC(C)C)NC(=O)[C@@H](NC(=O)[C@H](CCC(=O)O)NC(=O)[C@H](CCC(=O)O)NC(=O)[C@H](CC(=O)O)NC(=O)[C@@H](NC(=O)[C@H](Cc2ccccc2)NC(C)=O)[C@@H](C)CC)C(C)C)C(=O)N[C@@H](CC(C)C)C(=O)N[C@@H](C(C)C)C(=O)N[C@@H]([C@@H](C)CC)C(=O)N1)C(N)=O
B5: SP-68 (peptide)
peptide: Ac-FIDEEVL[Nle][S5]LVI[S5][Nle]ALD[Dap]-NH2
modifications: staple 9-13
SMILES: CCCC[C@H](NC(=O)[C@H](CC(C)C)NC(=O)[C@@H](NC(=O)[C@H](CCC(=O)O)NC(=O)[C@H](CCC(=O)O)NC(=O)[C@H](CC(=O)O)NC(=O)[C@@H](NC(=O)[C@H](Cc1ccccc1)NC(C)=O)[C@@H](C)CC)C(C)C)C(=O)N[C@@]1(C)CCCC=CCCC[C@@](C)(C(=O)N[C@@H](CCCC)C(=O)N[C@@H](C)C(=O)N[C@@H](CC(C)C)C(=O)N[C@@H](CC(=O)O)C(=O)N[C@@H](CN)C(N)=O)NC(=O)[C@H]([C@@H](C)CC)NC(=O)[C@H](C(C)C)NC(=O)[C@H](CC(C)C)NC1=O
B6: SP-77 (peptide)
peptide: Ac-FIDEE[S5]LMS[S5]VIEMGLDRIKELPELWL-NH2
modifications: staple 6-10
SMILES: CC[C@H](C)[C@H](NC(=O)[C@H](Cc1ccccc1)NC(C)=O)C(=O)N[C@@H](CC(=O)O)C(=O)N[C@@H](CCC(=O)O)C(=O)N[C@@H](CCC(=O)O)C(=O)N[C@@]1(C)CCCC=CCCC[C@@](C)(C(=O)N[C@H](C(=O)N[C@H](C(=O)N[C@@H](CCC(=O)O)C(=O)N[C@@H](CCSC)C(=O)NCC(=O)N[C@@H](CC(C)C)C(=O)N[C@@H](CC(=O)O)C(=O)N[C@@H](CCCNC(=N)N)C(=O)N[C@H](C(=O)N[C@@H](CCCCN)C(=O)N[C@@H](CCC(=O)O)C(=O)N[C@@H](CC(C)C)C(=O)N2CCC[C@H]2C(=O)N[C@@H](CCC(=O)O)C(=O)N[C@@H](CC(C)C)C(=O)N[C@@H](Cc2c[nH]c3ccccc23)C(=O)N[C@@H](CC(C)C)C(N)=O)[C@@H](C)CC)[C@@H](C)CC)C(C)C)NC(=O)[C@H](CO)NC(=O)[C@H](CCSC)NC(=O)[C@H](CC(C)C)NC1=O
B7: SP-70 (peptide)
peptide: Ac-FIDEQVLA[S5]LVI[S5]AALDRI-NH2
modifications: staple 9-13
SMILES: CC[C@H](C)[C@H](NC(=O)[C@H](CCCNC(=N)N)NC(=O)[C@H](CC(=O)O)NC(=O)[C@H](CC(C)C)NC(=O)[C@H](C)NC(=O)[C@H](C)NC(=O)[C@]1(C)CCCC=CCCC[C@](C)(NC(=O)[C@H](C)NC(=O)[C@H](CC(C)C)NC(=O)[C@@H](NC(=O)[C@H](CCC(N)=O)NC(=O)[C@H](CCC(=O)O)NC(=O)[C@H](CC(=O)O)NC(=O)[C@@H](NC(=O)[C@H](Cc2ccccc2)NC(C)=O)[C@@H](C)CC)C(C)C)C(=O)N[C@@H](CC(C)C)C(=O)N[C@@H](C(C)C)C(=O)N[C@@H]([C@@H](C)CC)C(=O)N1)C(N)=O
B8: SP-63 (peptide)
peptide: Ac-FIDE[Dap]VL[Nle][S5]LVI[S5][Nle]ALDRI-NH2
modifications: staple 9-13
SMILES: CCCC[C@H](NC(=O)[C@H](CC(C)C)NC(=O)[C@@H](NC(=O)[C@H](CN)NC(=O)[C@H](CCC(=O)O)NC(=O)[C@H](CC(=O)O)NC(=O)[C@@H](NC(=O)[C@H](Cc1ccccc1)NC(C)=O)[C@@H](C)CC)C(C)C)C(=O)N[C@@]1(C)CCCC=CCCC[C@@](C)(C(=O)N[C@@H](CCCC)C(=O)N[C@@H](C)C(=O)N[C@@H](CC(C)C)C(=O)N[C@@H](CC(=O)O)C(=O)N[C@@H](CCCNC(=N)N)C(=O)N[C@H](C(N)=O)[C@@H](C)CC)NC(=O)[C@H]([C@@H](C)CC)NC(=O)[C@H](C(C)C)NC(=O)[C@H](CC(C)C)NC1=O
B9: SP-101 (peptide)
peptide: Ac-FIDEEVLM[S5]LVI[S5]MALD-NH2
modifications: staple 9-13
SMILES: CC[C@H](C)[C@H](NC(=O)[C@H](Cc1ccccc1)NC(C)=O)C(=O)N[C@@H](CC(=O)O)C(=O)N[C@@H](CCC(=O)O)C(=O)N[C@@H](CCC(=O)O)C(=O)N[C@H](C(=O)N[C@@H](CC(C)C)C(=O)N[C@@H](CCSC)C(=O)N[C@@]1(C)CCCC=CCCC[C@@](C)(C(=O)N[C@@H](CCSC)C(=O)N[C@@H](C)C(=O)N[C@@H](CC(C)C)C(=O)N[C@@H](CC(=O)O)C(N)=O)NC(=O)[C@H]([C@@H](C)CC)NC(=O)[C@H](C(C)C)NC(=O)[C@H](CC(C)C)NC1=O)C(C)C
B10: SP-98 (peptide)
peptide: Ac-FIDEEVLM[S5]LVI[S5]MGLD-NH2
modifications: staple 9-13
SMILES: CC[C@H](C)[C@H](NC(=O)[C@H](Cc1ccccc1)NC(C)=O)C(=O)N[C@@H](CC(=O)O)C(=O)N[C@@H](CCC(=O)O)C(=O)N[C@@H](CCC(=O)O)C(=O)N[C@H](C(=O)N[C@@H](CC(C)C)C(=O)N[C@@H](CCSC)C(=O)N[C@@]1(C)CCCC=CCCC[C@@](C)(C(=O)N[C@@H](CCSC)C(=O)NCC(=O)N[C@@H](CC(C)C)C(=O)N[C@@H](CC(=O)O)C(N)=O)NC(=O)[C@H]([C@@H](C)CC)NC(=O)[C@H](C(C)C)NC(=O)[C@H](CC(C)C)NC1=O)C(C)C
B11: SP-93 (peptide)
peptide: Ac-FIDEEVLM[S5]LVI[S5]MGLDRIKELP-NH2
modifications: staple 9-13
SMILES: CC[C@H](C)[C@H](NC(=O)[C@H](Cc1ccccc1)NC(C)=O)C(=O)N[C@@H](CC(=O)O)C(=O)N[C@@H](CCC(=O)O)C(=O)N[C@@H](CCC(=O)O)C(=O)N[C@H](C(=O)N[C@@H](CC(C)C)C(=O)N[C@@H](CCSC)C(=O)N[C@@]1(C)CCCC=CCCC[C@@](C)(C(=O)N[C@@H](CCSC)C(=O)NCC(=O)N[C@@H](CC(C)C)C(=O)N[C@@H](CC(=O)O)C(=O)N[C@@H](CCCNC(=N)N)C(=O)N[C@H](C(=O)N[C@@H](CCCCN)C(=O)N[C@@H](CCC(=O)O)C(=O)N[C@@H](CC(C)C)C(=O)N2CCC[C@H]2C(N)=O)[C@@H](C)CC)NC(=O)[C@H]([C@@H](C)CC)NC(=O)[C@H](C(C)C)NC(=O)[C@H](CC(C)C)NC1=O)C(C)C
B12: SP-64 (peptide)
peptide: Ac-FIDEE[Dap]L[Nle][S5]LVI[S5][Nle]ALDRI-NH2
modifications: staple 9-13
SMILES: CCCC[C@H](NC(=O)[C@H](CC(C)C)NC(=O)[C@H](CN)NC(=O)[C@H](CCC(=O)O)NC(=O)[C@H](CCC(=O)O)NC(=O)[C@H](CC(=O)O)NC(=O)[C@@H](NC(=O)[C@H](Cc1ccccc1)NC(C)=O)[C@@H](C)CC)C(=O)N[C@@]1(C)CCCC=CCCC[C@@](C)(C(=O)N[C@@H](CCCC)C(=O)N[C@@H](C)C(=O)N[C@@H](CC(C)C)C(=O)N[C@@H](CC(=O)O)C(=O)N[C@@H](CCCNC(=N)N)C(=O)N[C@H](C(N)=O)[C@@H](C)CC)NC(=O)[C@H]([C@@H](C)CC)NC(=O)[C@H](C(C)C)NC(=O)[C@H](CC(C)C)NC1=O

Each binder was assayed against T1, His6-tagged p300 (AA 323-423) (UniProt Q09472 323-423) (assay: TR-FRET HIF1a/p300 displacement; grade = IC50 >700 nM).
T1 construct: range 323-423; also called p300-CH; not shown: His6 tag
T1 sequence (Q09472 323-423 limits assumed): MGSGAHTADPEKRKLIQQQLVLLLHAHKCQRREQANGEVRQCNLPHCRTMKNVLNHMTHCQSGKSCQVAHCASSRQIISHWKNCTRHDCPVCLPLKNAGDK
Method in brief: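 Peptides competed with HIF1α C-terminal transactivation domain for His6-p300-CH (complex 300 nM final) during 1 h at RT in 20 mM HEPES pH 7.4, 150 mM NaCl, 7.5 mM CHAPS, 1 mM DTT. Anti-Flag-K (0.5 μM) and anti-His-D2 (4 nM) were added for 2 h. IC50 was derived from the TR-FRET ratio by one-site fit.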
With B1 the IC50 was over 700 nM.
B2 gave an IC50 of over 700 nM.
With B3 the IC50 was over 700 nM.
B4 gave an IC50 of over 700 nM.
In the case of B5, the IC50 is reported as over 700 nM.
Work on B6 yielded an IC50 of over 700 nM.
B7 gave an IC50 of over 700 nM.
With B8 the IC50 was over 700 nM.
B9 was tested, and the IC50 was over 700 nM.
B10 showed an IC50 of over 700 nM.
B11 was tested, and the IC50 was over 700 nM.
Work on Ac-FIDEEV[Ala(3-Me-diazirin-3-yl)][Nle][S5]LVI[S5][Nle]ALDRI-NH2 (staple 9-13) [SP-71] yielded an IC50 of over 700 nM.
B12 showed an IC50 of over 700 nM.
